B1: HuZV-67, humanized version of the ZIKV specific mouse EDIII mAb ZV-67, IgG1 format (antibody, V domains shown)
VH: QAQLQQSGTGLARPGASVKLSCKASGYTFTSYGISWVTQRAGQGLEWIGVIYPRSGNTYYNEKFRGKATLTADKSSSSAYMELRGLTAEDSAVYFCARENYGSVYWGQGTTLTVSS
VL: DIVMTQSQKFMSTSVGDRVSITCKASQNVGTAVAWYQQKPGQSPKLLIYSASNRYTGVPDRFTGSGSGTDFTLTISNMQSEDLADYFCQQFSSYPYTFGGGTKLEIK
notes: IgG1; source: Expi293, purified (MabSelect resin)
B2: G9E Fab (antigen binding fragment of human monoclonal antibody G9E, wild type) (Fab, V domains shown)
VH: RVHLVESGGGVVQPGRSLRLSCVASGFAFSNYHMHWVRQAPGKGLEWVAIIWDDGSDQYYADSVKGRFTISRDNSKNTLFLQMNRLRAEDTALYYCVGGSSAYNGDNGWREAASLDDWGQGTLVTVSS
VL: QSALTQPASVSGSPGQSITIFCSGSSNDVGGYNYVSWYQQYPGKVPKLLIYDVNSRPSGVSNRFSGSKSGNTASLTISGLQAEDEADYYCSSYTSRRTWVFGGGTIVTVL
notes: also called Fab G9E; G9E WT

Legend:
[1] = target: T1, ZIKV E protein on wild-type Zika virus H/PF/2013 in culture supernatant (Zika virus strain H/PF/2013, UniProt A0A024B7W1); assay: ELISA; ZIKV capture ELISA: virus (WT or rZIKV-D67N) in culture supernatant captured by plate-bound mAb 4G2; mAbs added 1 h at 37°C; anti-human Fc alkaline phosphatase; signal normalized to ZKA-190; settings: one partner purified
T1 construct: also called WT ZIKV; ZIKV H/PF/2013; source: ZIKV in culture supernatant

[2] = target: T2, recombinant ZIKV E protein (ectodomain of Zika virus envelope glycoprotein E) (Zika virus; PDB 8DV6 source …); assay: crystal structure; recombinant ZIKV E and G9E Fab mixed 1:1.2 at room temperature for 30 min, complex purified on Superdex 200-increase; crystals in 100 mM HEPES pH 7.5, 10% (w/v) PEG 8000; 3.4 Å; settings: both partners purified
T2 construct: also called soluble E; E-dimer

Row | Binder | binding result [1] | binding result [2]
1 | B1 | binds | 
2 | B2 |  | binds

— article PMC9870165, “Structure and neutralization mechanism of a human antibody targeting a complex Epitope on Zika virus” (PLOS Pathogens, 2023)
